{"source": "patent US20150299332A1", "about": "(UNIVERSITY OF TSUKUBA, published 2015)", "binders": {"B1": {"name": "Human CD300a monoclonal antibody TX49 (mouse IgG1) (antibody, V domains shown)", "VH": "EVQLQQSGAELVKPGASVKLSCKASGYTFTSYWMQWVKQRPGQGLEWIGEIDPSDSYTNYNQKFKGKATLTVDTSSSTTYMQLSSLTSEDSAVYYCARWGMAYGTSSYWYFDVWGTGTTVTVSS", "VL": "DCDIQMTQTTSSLSASLGDRVTISCRASQDISNYLNWYQQKPDGTVKLLIYYTSRLHSGVPSRFSGSGSGTDYSLTISNLEQEDIATYFCQQGNTLPWTFGGGTKLEIKR", "notes": "also called anti-human CD300a monoclonal antibody; anti-human CD300a antibody"}}, "target": "T1, human CD300a-Fc (human, UniProt Q9UGN4 18-180)", "T1 construct": "extracellular domain; Made from a chimeric cDNA as in Document 25; not shown: human IgG1 Fc", "T1 sequence (looked up)": "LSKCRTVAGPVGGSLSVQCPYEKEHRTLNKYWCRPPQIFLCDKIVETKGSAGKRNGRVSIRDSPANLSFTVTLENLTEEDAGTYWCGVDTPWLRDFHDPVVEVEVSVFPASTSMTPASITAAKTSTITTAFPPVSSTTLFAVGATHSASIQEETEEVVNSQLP", "assay": "flow cytometry binding inhibition: human CD300a-Fc on apoptotic Jurkat cells with TX49 (binding of TX49 to CD300a-Fc shown by blocking)", "procedure": "First, Jurkat cells (human T-cell line) were suspended in RPMI 1640 medium, and the resulting medium was irradiated with UV for 60 minutes to prepare apoptotic Jurkat cells.\nFurther, cytometry analysis was carried out under the same test conditions as in Reference Example 1B except that the “Jurkat cell-derived apoptotic cells” were used as apoptotic cells instead of the apoptotic cells derived from wild-type mouse thymocytes; “human CD300a-Fc” was used instead of the “mouse CD300a-Fc”; and “TX49” or “control human IgG1” was used instead of “TX41” (results: FIG. 2E “TX49” or “HuIgG1”). “TX49” is an anti-human CD300a antibody (monoclonal antibody), and blocks binding of CD300a to the ligand."}
{"binder": "B1", "values": [{"measurement": "binding result", "result": "binds"}]}
